Test results published in patent US20250002576A1.
pEC50: −log10 of the molar value.

Legend:
[1] = molecular target: lysozyme; experiment: non-specific binding ELISA, lysozyme immobilized
[2] = molecular target: human Claudin 18.2 (human) (UniProt P56856); experiment: flow cytometry, antibody dilution series on hCLDN18.2-expressing MiaPaCa-2 cells

claudiximab (antibody)
normalized signal (fluorescence intensity normalized to trastuzumab) [1]: 0.9
pEC50 [2]: 8.06
